± gives the standard deviation of the averaged measurements.
Test: total protein half-life in vivo (active degradation + dilution); higher = more stable protein
[1] = E. coli NCM3722 delta-clpP delta-lon delta-hslV, growth: N-lim chemostat, doubling time 6 h
[2] = wild type E. coli NCM3722, growth: N-lim chemostat, doubling time 12 h
[3] = E. coli NCM3722 delta-clpP, growth: N-lim chemostat, doubling time 6 h
[4] = E. coli NCM3722 delta-hslV, growth: N-lim chemostat, doubling time 6 h
[5] = E. coli NCM3722 delta-lon, growth: N-lim chemostat, doubling time 6 h
[6] = wild type E. coli NCM3722, growth: C-lim chemostat, doubling time 3 h
[7] = wild type E. coli NCM3722, growth: C-lim chemostat, doubling time 6 h
[8] = wild type E. coli NCM3722, growth: C-lim chemostat, doubling time 12 h
[9] = wild type E. coli NCM3722, growth: N-lim chemostat, doubling time 6 h
[10] = wild type E. coli NCM3722, growth: P-lim chemostat, doubling time 6 h
[11] = wild type E. coli NCM3722, growth: P-lim chemostat, doubling time 12 h
[12] = E. coli NCM3722 delta-smpB, growth: N-lim chemostat, doubling time 6 h

MDIFISKKMRNFILLAQTNNIARAAEKIHMTASPFGKSIAALEEQIGYTLFTRKDNNISLNKAGQELYQKLFPVYQRLSAIDNEIHNSGRRSREIVIGIDNTYPTIIFDQLISLGDKYEGVTAQPVEFSENGVIDNLFDRQLDFIISPQHVSARVQELENLTISELPPLRLGFLVSRRYEERQEQELLQELPWLQMRFQNRANFEAMIDANMRPCGINPTIIYRPYSFMAKISAVERGHFLTVIPHFAWRLVNPATLKYFDAPHRPMYMQEYLYSIRNHRYTATMLQHIAEDRDGTSH
total protein half-life in vivo [1]: 5.12 h
total protein half-life in vivo [2]: 9.66 h

MDIVFIEQLSVITTIGVYDWEQTIEQKLVFDIEMAWDNRKAAKSDDVADCLSYADIAETVVSHVEGARFALVERVAEEVAELLLARFNSPWVRIKLSKPGAVARAANVGVIIERGNNLKENN [P0AC16]
total protein half-life in vivo [1]: 5.71 ± 0.35 h
total protein half-life in vivo [3]: 5.86 h
total protein half-life in vivo [4]: 5.4 ± 0.43 h
total protein half-life in vivo [5]: 5.47 ± 0.74 h
total protein half-life in vivo [6]: 3.26 ± 0.37 h
total protein half-life in vivo [7]: 6.02 ± 0.37 h
total protein half-life in vivo [8]: 11.8 ± 1.3 h
total protein half-life in vivo [9]: 5.39 ± 0.56 h
total protein half-life in vivo [2]: 10.7 ± 2.2 h
total protein half-life in vivo [10]: 6.4 ± 0.65 h
total protein half-life in vivo [11]: 12.39 ± 0.043 h

MDKIHAMQLFIKVAELESFSRAADFFALPKGSVSRQIQALEHQLGTQLLQRTTRRVKLTPEGMTYYQRAKDVLSNLSELDGLFQQDATSISGKLRIDIPPGIAKSLLLPRLSEFLYLHPGIELELSSHDRPVDILHDGFDCVIRTGALPEDGVIARPLGKLTMVNCASPHYLTRFGYPQSPDDLTSHAIVRYTPHLGVHPLGFEVASVNGVQWFKSGGMLTVNSSENYLTAGLAGLGIIQIPRIAVREALRAGRLIEVLPGYRAEPLSLSLVYPQRRELSRRVNLFMQWLAGVMKEYLD
total protein half-life in vivo [1]: 6.09 ± 0.38 h
total protein half-life in vivo [3]: 4.8 ± 0.34 h
total protein half-life in vivo [4]: 2.08 h
total protein half-life in vivo [5]: 3.35 ± 0.51 h
total protein half-life in vivo [12]: 2.76 h
total protein half-life in vivo [6]: 2.32 h
total protein half-life in vivo [7]: 3.43 ± 0.34 h
total protein half-life in vivo [8]: 7.24 ± 3.2 h

MDKVLDSALLSSANKRKGILAIGAHPDDIELGCGASLARLAQKGIYIAAVVMTTGNSGTDGIIDRHEESRNALKILGCHQTIHLNFADTRAHLQLNDMISALEDIIKNQIPSDVEIMRVYTMHDADRHQDHLAVYQASMVACRTIPQILGYETPSTWLSFMPQVFESVKEEYFTVKLAALKKHKS
total protein half-life in vivo [1]: 5.73 h

MDLASLRAQQIELASSVIREDRLDKDPPDLIAGADVGFEQGGEVTRAAMVLLKYPSLELVEYKVARIATTMPYIPGFLSFREYPALLAAWEMLSQKPDLVFVDGHGISHPRRLGVASHFGLLVDVPTIGVAKKRLCGKFEPLSSEPGALAPLMDKGEQLAWVWRSKARCNPLFIATGHRVSVDSALAWVQRCMKGYRLPEPTRWADAVASERPAFVRYTANQP
total protein half-life in vivo [3]: 5.52 ± 0.25 h
total protein half-life in vivo [4]: 4.58 ± 0.4 h
total protein half-life in vivo [5]: 4.952 ± 0.015 h
total protein half-life in vivo [12]: 4.62 ± 0.2 h
total protein half-life in vivo [6]: 3.05 ± 0.12 h
total protein half-life in vivo [7]: 6.09 ± 0.24 h
total protein half-life in vivo [8]: 11.3 ± 0.85 h
total protein half-life in vivo [9]: 5.08 ± 0.14 h
total protein half-life in vivo [2]: 8.84 ± 0.67 h
total protein half-life in vivo [10]: 5.3 ± 0.39 h
total protein half-life in vivo [11]: 9.801 ± 0.042 h

MDLIYFLIDFILHIDVHLAELVAEYGVWVYAILFLILFCETGLVVTPFLPGDSLLFVAGALASLETNDLNVHMMVVLMLIAAIVGDAVNYTIGRLFGEKLFSNPNSKIFRRSYLDKTHQFYEKHGGKTIILARFVPIVRTFAPFVAGMGHMSYRHFAAYNVIGALLWVLLFTYAGYFFGTIPMVQDNLKLLIVGIIVVSILPGVIEIIRHKRAAARAAK [P0ABP6]
total protein half-life in vivo [1]: 3.68 ± 0.076 h
total protein half-life in vivo [3]: 3.87 h
total protein half-life in vivo [4]: 3.74 h
total protein half-life in vivo [5]: 3.148 ± 0.016 h
total protein half-life in vivo [12]: 4.71 ± 0.57 h
total protein half-life in vivo [6]: 2.65 ± 0.21 h
total protein half-life in vivo [7]: 5.03 ± 0.88 h
total protein half-life in vivo [8]: 9.21 ± 3.2 h
total protein half-life in vivo [9]: 3.7 ± 0.13 h
total protein half-life in vivo [2]: 6.2 ± 0.26 h
total protein half-life in vivo [11]: 7.57 ± 1.5 h

MDLQHWQAQFENWLKNHHQHQDAAHDVCHFRRVWATAQKLAADDDVDMLVILTACYFHDIVSLAKNHPQRQRSSILAAEETRRLLREEFEQFPAEKIEAVCHAIAAHSFSAQIAPLTTEAKIVQDADRLEALGAIGLARVFAVSGALGVALFDGEDPFAQHRPLDDKRYALDHFQTKLLKLPQTMQTARGKQLAQHNAHFLVEFMAKLSAELAGENEGVDHKVIDAFSSAG
total protein half-life in vivo [1]: 4.36 ± 0.052 h
total protein half-life in vivo [3]: 3.48 ± 0.37 h
total protein half-life in vivo [4]: 2.72 h
total protein half-life in vivo [12]: 2.92 ± 0.03 h
total protein half-life in vivo [6]: 2.09 ± 0.078 h
total protein half-life in vivo [9]: 2.29 h
total protein half-life in vivo [2]: 3.19 h
total protein half-life in vivo [10]: 2.83 ± 0.28 h
total protein half-life in vivo [11]: 4.67 ± 0.13 h

MDLRRFITLKTVVEEGSFLRASQKLCCTQSTVTFHIQQLEQEFSVQLFEKIGRRMCLTREGKKLLPHIYELTRVMDTLREAAKKESDPDGELRVVSGETLLSYRMPQVLQRFRQRAPKVRLSLQSLNCYVIRDALLNDEADVGVFYRVGNDDALNRRELGEQSLVLVASPQIADVDFTEPGRHNACSFIINEPQCVFRQIFESTLRQRRITVENTIELISIESIKRCVAANIGVSYLPRFAVAKELECGELIELPFGEQSQTITAMCAHHAGKAVSPAMHTFIQCVEESFVAG
total protein half-life in vivo [1]: 5.31 ± 0.83 h
total protein half-life in vivo [3]: > 8 h
total protein half-life in vivo [4]: 4.13 h
total protein half-life in vivo [5]: 4.83 h
total protein half-life in vivo [12]: 3.41 h
total protein half-life in vivo [7]: 4.86 h
total protein half-life in vivo [8]: 8.259 ± 0.077 h
total protein half-life in vivo [9]: 4.37 ± 0.49 h
total protein half-life in vivo [2]: 6.51 h
total protein half-life in vivo [10]: 5.85 h
total protein half-life in vivo [11]: 7.91 h

MDLSLLKALSEADAIASSEQEVRQILLEEADRLQKEVRFDGLGSVLIRLNESTGPKVMICAHMDEVGFMVRSISREGAIDVLPVGNVRMAARQLQPVRITTREECKIPGLLDGDRQGNDVSAMRVDIGARSYDEVMQAGIRPGDRVTFDTTFQVLPHQRVMGKAFDDRLGCYLLVTLLRELHDAELPAEVWLVASSSEEVGLRGGQTATRAVSPDVAIVLDTACWAKNFDYGAANHRQIGNGPMLVLSDKSLIAPPKLTAWVETVAAEIGVPLQADMFSNGGTDGGAVHLTGTGVPTVVMGPATRHGHCAASIADCRDILQMQQLLSALIQRLTRETVVQLTDFR
total protein half-life in vivo [1]: 5.79 h
total protein half-life in vivo [6]: 2.18 h

MDNDKIDQHSDEIEVESEEKERGKKIEIDEDRLPSRAMAIHEHIRQDGEKELERDAMALLWSAIAAGLSMGASLLAKGIFQVELEGVPGSFLLENLGYTFGFIIVIMARQQLFTENTVTAVLPVMQKPTMSNVGLLIRLWGVVLLGNILGTGIAAWAFEYMPIFNEETRDAFVKIGMDVMKNTPSEMFANAIISGWLIATMVWMFPAAGAAKIVVIILMTWLIALGDTTHIVVGSVEILYLVFNGTLHWSDFIWPFALPTLAGNICGGTFIFALMSHAQIRNDMSNKRKAEARQKAERAENIKKNYKNPA
total protein half-life in vivo [1]: 6.19 ± 0.79 h
total protein half-life in vivo [3]: 5.38 ± 0.26 h
total protein half-life in vivo [4]: 5.3 h
total protein half-life in vivo [5]: 5.46 h
total protein half-life in vivo [12]: 6.11 ± 1.4 h
total protein half-life in vivo [6]: 3.47 h
total protein half-life in vivo [7]: 5.51 ± 0.23 h
total protein half-life in vivo [8]: 11.5 ± 1.9 h
total protein half-life in vivo [9]: 5.75 ± 1.1 h
total protein half-life in vivo [2]: 13.5 ± 1.3 h
total protein half-life in vivo [10]: 6.29 ± 0.45 h
total protein half-life in vivo [11]: 12.6 ± 0.066 h

From the supplement of paper PMC11246515
